Data published in patent US20240287172A1 (SCIRHOM, published 2024).

Assays:
Test in all cases: FACS on MEF-DKO cells
[1] = molecular target: T1, hiR2-FL-D535-T7 (deletion of D535) (human, UniProt Q6PJF5 1-856)
T1 construct: single amino acid deletion
T1 sequence: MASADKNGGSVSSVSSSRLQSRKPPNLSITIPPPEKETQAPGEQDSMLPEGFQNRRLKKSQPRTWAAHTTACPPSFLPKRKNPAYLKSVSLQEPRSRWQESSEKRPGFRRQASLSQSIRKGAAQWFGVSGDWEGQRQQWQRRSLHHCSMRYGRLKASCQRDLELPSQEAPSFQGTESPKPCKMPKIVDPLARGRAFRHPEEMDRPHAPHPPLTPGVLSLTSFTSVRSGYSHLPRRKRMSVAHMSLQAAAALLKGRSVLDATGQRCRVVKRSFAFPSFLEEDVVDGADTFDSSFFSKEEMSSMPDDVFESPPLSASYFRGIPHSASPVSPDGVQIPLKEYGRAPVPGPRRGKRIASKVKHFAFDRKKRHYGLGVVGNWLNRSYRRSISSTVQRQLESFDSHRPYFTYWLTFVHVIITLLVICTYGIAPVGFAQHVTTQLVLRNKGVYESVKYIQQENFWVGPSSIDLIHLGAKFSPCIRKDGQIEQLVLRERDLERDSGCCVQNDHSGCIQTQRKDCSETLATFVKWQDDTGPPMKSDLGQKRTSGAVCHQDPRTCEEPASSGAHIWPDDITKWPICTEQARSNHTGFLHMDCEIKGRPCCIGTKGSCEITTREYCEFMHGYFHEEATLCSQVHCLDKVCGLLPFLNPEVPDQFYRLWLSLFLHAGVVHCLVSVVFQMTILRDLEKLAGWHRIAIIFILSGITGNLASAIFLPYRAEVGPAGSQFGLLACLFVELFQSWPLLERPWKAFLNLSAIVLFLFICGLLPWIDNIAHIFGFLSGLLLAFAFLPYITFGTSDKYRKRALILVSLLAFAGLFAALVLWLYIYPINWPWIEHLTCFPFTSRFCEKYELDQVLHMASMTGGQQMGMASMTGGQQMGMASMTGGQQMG

[2] = molecular target: T2, hiR2-FL-P533-T7 (deletion of P533) (human, UniProt Q6PJF5 1-856)
T2 construct: single residue deletion, not a substitution; on MEF-DKO cells
T2 sequence: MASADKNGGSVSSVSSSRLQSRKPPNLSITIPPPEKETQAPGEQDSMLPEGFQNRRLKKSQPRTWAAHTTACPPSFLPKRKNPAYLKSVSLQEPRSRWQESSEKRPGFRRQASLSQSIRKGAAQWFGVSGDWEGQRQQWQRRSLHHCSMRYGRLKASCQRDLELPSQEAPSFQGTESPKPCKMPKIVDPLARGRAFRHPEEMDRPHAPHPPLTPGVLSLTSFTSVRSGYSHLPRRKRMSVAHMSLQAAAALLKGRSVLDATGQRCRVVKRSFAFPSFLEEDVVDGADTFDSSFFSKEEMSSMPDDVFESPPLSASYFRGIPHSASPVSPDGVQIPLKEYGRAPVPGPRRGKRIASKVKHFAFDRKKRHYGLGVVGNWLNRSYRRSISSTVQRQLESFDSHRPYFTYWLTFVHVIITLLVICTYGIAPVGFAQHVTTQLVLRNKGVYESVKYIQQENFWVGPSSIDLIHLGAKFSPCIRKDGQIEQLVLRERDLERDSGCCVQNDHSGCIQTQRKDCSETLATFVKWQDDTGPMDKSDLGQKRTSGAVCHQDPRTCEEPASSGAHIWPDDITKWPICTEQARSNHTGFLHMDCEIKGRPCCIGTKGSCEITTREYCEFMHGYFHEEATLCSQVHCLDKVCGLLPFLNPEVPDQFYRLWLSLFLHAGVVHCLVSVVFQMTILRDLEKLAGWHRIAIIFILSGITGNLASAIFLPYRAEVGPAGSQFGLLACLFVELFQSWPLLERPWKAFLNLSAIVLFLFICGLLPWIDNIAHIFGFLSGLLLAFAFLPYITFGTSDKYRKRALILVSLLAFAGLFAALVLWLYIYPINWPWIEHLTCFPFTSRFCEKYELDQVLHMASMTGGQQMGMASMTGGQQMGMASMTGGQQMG

miR2-FL-WT-T7 = molecular target: T3, miR2-FL-WT-T7 (mouse, UniProt Q80WQ6 1-827)
T3 construct: on MEF-DKO cells
T3 sequence: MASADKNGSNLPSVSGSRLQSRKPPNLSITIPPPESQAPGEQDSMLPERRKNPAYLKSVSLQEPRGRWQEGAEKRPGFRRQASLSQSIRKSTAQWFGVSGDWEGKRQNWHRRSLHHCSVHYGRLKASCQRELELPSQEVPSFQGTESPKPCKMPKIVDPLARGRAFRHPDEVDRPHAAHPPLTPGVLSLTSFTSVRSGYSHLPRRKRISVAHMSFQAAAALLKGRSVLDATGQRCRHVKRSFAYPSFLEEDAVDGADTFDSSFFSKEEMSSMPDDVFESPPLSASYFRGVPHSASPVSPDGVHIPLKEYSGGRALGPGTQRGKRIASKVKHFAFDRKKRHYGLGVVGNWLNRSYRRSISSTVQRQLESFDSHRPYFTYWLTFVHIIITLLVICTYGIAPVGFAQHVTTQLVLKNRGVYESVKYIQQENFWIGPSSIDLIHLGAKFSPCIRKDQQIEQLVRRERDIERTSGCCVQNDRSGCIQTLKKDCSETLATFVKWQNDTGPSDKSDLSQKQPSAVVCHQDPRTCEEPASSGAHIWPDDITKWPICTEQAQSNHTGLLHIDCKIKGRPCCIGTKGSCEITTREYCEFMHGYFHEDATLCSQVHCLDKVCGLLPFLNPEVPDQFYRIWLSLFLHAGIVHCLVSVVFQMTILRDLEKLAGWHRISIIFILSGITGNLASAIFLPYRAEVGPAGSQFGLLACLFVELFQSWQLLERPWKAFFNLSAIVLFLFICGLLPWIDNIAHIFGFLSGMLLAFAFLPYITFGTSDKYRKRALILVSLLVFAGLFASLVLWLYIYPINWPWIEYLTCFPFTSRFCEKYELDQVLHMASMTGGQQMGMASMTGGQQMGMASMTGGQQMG

B1: antibody 34 (antibody, V domains shown)
VH: QVTLKESGPGILQPSQTLSLTCSFSGFSLSTFSLGVGWIRQSSGKGLEWLAHIWWDDEKYYNPALKSRLTISKDTSKNQVFLKIANVDAADTATYYCARAYYSKSYYALDYWGQGTSVTVSS
VL: DIQMTQSPSSLSASLGERVSLTCRASQEISGYLSWLQQKPDGTIKRLIYAASTLDSGVPKRFSGSRSGSDYSLAISSLESEDFADYYCLQYANFPFTFGSGTKLEIK
notes: mouse IgG, kappa light chain; also called clone #34; purified antibody 34
B1: no binding (tested: 3 µg/ml) [1]; no binding (tested: 3 µg/ml) [2]; no binding (tested: 3 µg/ml) (miR2-FL-WT-T7).

B2: antibody 5 (antibody, V domains shown)
VH: QVTLKESGPGILQPSQTLSLTCSFSGFSLSTFGMGVGWIRQPSGKGLEWLAHIWWDDEKYYNSALKSRLTISKATSKNQAFLKIANVDTADTATYYCARISNYGSNYWYFNVWGTGTTVTVSS
VL: QVVLTQSPALMSASPGEKVTMTCSAGSSVSCMYWYQQKPGSSPRVLIYDTSNLASGVPARFTGSGSGTSYSLTISRMEAEDAASYYCQQWNSYPLTFGAGTKLELK
notes: mouse IgG, kappa light chain; also called clone #5; purified antibody 5
B2: no binding (tested: 3 µg/ml) [1]; no binding (tested: 3 µg/ml) [2]; no binding (tested: 3 µg/ml) (miR2-FL-WT-T7).

B3: antibody 44 (antibody, V domains shown)
VH: QVTLKESGPGILQPSQTLSLTCSFSGFSLSTFGMGVGWIRQPSEKGLEWLAHIWWDDDKYYNPALKSRLTISKDTSKNQIFLKITNVDTAETATYYCSRIGNYGSNYWYFDVWGTGTTVTVSS
VL: QIVLTQSPAVMSASPGEKVTMTCTASSSVYYMYWYQQTPGSSPRLLIYDTSNLASGVPVRFSGSGSGTSYSLTISRMEAEDAATYYCQQWNTYPLTFGAGTKLELK
notes: mouse IgG, kappa light chain; also called clone #44; purified antibody 44
B3: no binding (tested: 3 µg/ml) [1]; no binding (tested: 3 µg/ml) [2]; no binding (tested: 3 µg/ml) (miR2-FL-WT-T7).

B4: antibody 42 (antibody, V domains shown)
VH: QVTLKESGPGILQPSQTLSLTCSLSGFSLSTFGRGVGWIRQPSGKGLEWLAHIWWDDEKYYNPALKSRLTISKDTSKNQVFLRIANVDTADTATYYCARIQNYGSNYWYFDVWGTGTTVTVSS
VL: LIVLTQSPAIMSASPGEKVTMTCGATSRISYMFWYQQKPGSSPRVLIYDTSNLASGVPVRFSGSGSGTSYSLTISRVEAEDVATYYCQQWNSYPLTFGAGTKLELK
notes: mouse IgG, kappa light chain; also called clone #42; purified antibody 42
B4: no binding (tested: 3 µg/ml) [1]; no binding (tested: 3 µg/ml) [2]; no binding (tested: 3 µg/ml) (miR2-FL-WT-T7).

B5: antibody 43 (antibody, V domains shown)
VH: QVALKESGPGILQPSQTLSLTCSFSGFSLSTFGMGVGWIRQSSGKGLEWLANIWWDDDKYYNPALKSRLTISKDASKNQAFLKIANVDTADTATYYCARIGNYGSNYWYFDVWGTGTTVTVSS
VL: QIVLTQSPAIMSASPGERVTMTCSANSRISYMYWYQQKPGSSPRLLIYDTSNLASGVPVRFSGSGSGTSYSLTISRMEAEDAATYNCQQWSSYPLTFGAGTKLELK
notes: mouse IgG, kappa light chain; also called clone #43; purified antibody 43
B5: no binding (tested: 3 µg/ml) [1]; no binding (tested: 3 µg/ml) [2]; no binding (tested: 3 µg/ml) (miR2-FL-WT-T7).

B6: antibody 22 (antibody, V domains shown)
VH: QVTLKESGPGILQPSQTLSLTCSFSGFSLSTFGMGVGWIRQPSGKGLEWLAHIWWDDEKYYNSALKSRLTISKATSKNQVFLKIANVDTADTATYYCARISNYGSNYWYFNVWGTGTTVTVSS
VL: QVVLTQSPALMSASPGEKVTMTCSAGSSVSYMYWYQQKPGSSPRVLIYDTSNLASGVPARFTGSGSGTSYSLTISRMEAEDAATYYCQQWNSYPLTFGAGTKLELK
notes: mouse IgG, kappa light chain; also called clone #22; purified antibody 22
B6: no binding (tested: 3 µg/ml) [1]; no binding (tested: 3 µg/ml) [2]; no binding (tested: 3 µg/ml) (miR2-FL-WT-T7).

B7: antibody 16 (antibody, V domains shown)
VH: QVTLKESGPGILQPSQTLSLTCSFSGFSLSTFALGVGWIRQPSGRGLEWLAHIWWDDDKYYNPALKSRLTISKDTSKNHVFLKIANVDTADTATYYCARITTYYYGMDYWGQGTSVTVSS
VL: DIVLSQSPATLSVTPGDSVSLFCRASQSIGNHLHWYQQESHASPRLLIKYASQSISGIPSRFSGSGSGTDFTLSINSVETEDFGMYFCQQSYNWPLTFGAGTKLELK
notes: mouse IgG, kappa light chain; also called clone #16; purified antibody 16
B7: no binding (tested: 3 µg/ml) [1]; no binding (tested: 3 µg/ml) [2]; no binding (tested: 3 µg/ml) (miR2-FL-WT-T7).

B8: antibody 3 (antibody, V domains shown)
VH: QVTLKESGPGILQPSQTLSLTCSFSGFSLTTFAMGIGWVRQPSGKGLEWLAHIWWDGEKYNNPVLKSRLTISKDTSKNQVFLRIANVDTPDTATYYCARISSIYYIIDNWGQGTSVTVSS
VL: DIVLTQSPATLSVTPGHSVSLSCRASQSISNNLHWYQKKSHESPRLLIKYVSQSISGIPSRFSGSGSGTDFTLSINSVETEDFGMYFCQQSYNWPLTFGAGTKLELK
notes: mouse IgG, kappa light chain; also called clone #3; purified antibody 3
B8: no binding (tested: 3 µg/ml) [1]; no binding (tested: 3 µg/ml) [2].
